Earlier results in paper PMC7590900.

Target: CXCR7 (Homo sapiens) (UniProt P25106)
Sequence of UniProt P25106 (P25106 whole entry): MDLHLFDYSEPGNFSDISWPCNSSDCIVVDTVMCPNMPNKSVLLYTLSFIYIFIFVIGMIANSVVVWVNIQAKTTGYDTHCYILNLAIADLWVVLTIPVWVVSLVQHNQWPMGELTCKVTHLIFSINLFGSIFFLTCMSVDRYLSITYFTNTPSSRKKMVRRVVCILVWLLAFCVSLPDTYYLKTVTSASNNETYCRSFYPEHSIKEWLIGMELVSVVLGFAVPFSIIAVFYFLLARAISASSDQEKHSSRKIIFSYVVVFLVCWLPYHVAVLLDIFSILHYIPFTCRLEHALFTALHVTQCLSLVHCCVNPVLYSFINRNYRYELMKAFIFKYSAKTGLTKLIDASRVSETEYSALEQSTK

- Kd: 3.5 nM
Substance: CXCL11 (from UniProt O14625)
